From US20230159961A1, “BIOSYNTHESIS OF CHEMICALLY DIVERSIFIED NON-NATURAL TERPENE PRODUCTS” (Board of Trustees of Michigan State University, priority 2019, published 2023)

Legend:
[1] = tested on: Coleus forskohlii CfTPS2 and Salvia sclarea SsSCS; assay: coupled class II / class I in vitro assay with methyl-GGDP (C21) substrate; assay type: biochemical; conditions: CfTPS2 and SsSCS used together; product structure similar to sclareol (FIG. 10)
Method: A typical high-throughput in vitro diTPS assay in lml contained 5 μg substrate, 200 μg purified enzyme (class II plus class I for labdanoid-type diterpenes, or class I for irregular diterpenes), and 10mM buffer with magnesium. Reactions are carried out for 1 hour at 16° C., followed by vortexing with an equal volume of hexane to extract the products into the organic phase, prior to removal for GC/MS analysis.
Reactions leading to novel compounds can be scaled up for structural elucidation. The scale-up procedure involved the same composition. However, in coupled assays of pairs of diTPS, the class II enzyme may be pre-incubated with substrate for two hours, before adding the class I diTPS.
Enzymes Coleus forskohlii CfTPS2 (SEQ ID NO:69) and Salvia sclarea SsSCS (SEQ ID NO:61) were coupled in an in vitro assay to ascertain whether the synthetic unnatural methyl-GGDP (C21) substrate can efficiently yield the corresponding C21 methyl-diterpene.

[2] = tested on: DgTPS1 (casbene synthase); assay: in vitro diTPS assay: casbene synthase DgTPS1 reacted with unGGPP, products by GC/MS; assay type: biochemical, Daphne genkwa; conditions: product mass consistent with a methyl-derivative of casbene
Method: A conserved irregular, macrocyclic structure is consistent with the fragmentation pattern of the major fragments of casbene (FIG. 5C-5D).
To assess substrate tolerance of class II diTPS, substrates are screened against a panel of twenty-five enzymes. Recombinant diTPS were expressed heterologously in E. coli, purified, and reconstituted in in vitro assays with the substrate to be tested. The products from the enzymatic action on the substrate were analyzed structural elucidation and downstream functionalization.
In particular, pET28b+plasmids containing N-terminally truncated diTPS variants (having the plastidial targeting signal removed to generate pseudomature enzymes) are transformed into E. coli BL-21DE3-C41 OverExpress cells. Cultures are grown at 37° C. and 180 rpm until the optical density at 600 nm reached 0.3 to 0.4. Cultures are cooled to 16° C., and expression is induced at an optical density at 600 nm of approximately 0.6 with 0.2 mM isopropylthiogalactoside. Cells are collected and lysed before purification of the His6-tagged enzymes with Ni-NTA columns.
A typical high-throughput in vitro diTPS assay in lml contained 5 μg substrate, 200 μg purified enzyme (class II plus class I for labdanoid-type diterpenes, or class I for irregular diterpenes), and 10mM buffer with magnesium. […]

[3] = tested on: class I labdane-type diTPS; assay: class I labdane-type diTPS and tested substrates converted (Table 2); assay type: biochemical; conditions: decalin-core diphosphate substrates that the enzyme converted, enzymes functionally expressed
Description: Instead of accepting the acyclic GGPP, class I enzymes can use structurally diverse decalin-core diphosphate intermediates generated by class II enzymes. At this stage, additional cyclizations, double-bond-, hydride and alkyl shifts can occur, followed by either proton abstraction or quenching of the final carbocation through a water molecule.
All enzymes in Table 2 were functionally expressed. Microbial sequences were expressed as synthetic variants, expression optimized for E. coli. See also FIG. 7.

Row | Molecule | Substrate (tested substrates converted) [3] | other results
1 | CC(C)=CCC/C(C)=C/CC/C(C)=C/CC/C(C)=C(\C)COP(=O)(O)OP(=O)(O)O [methyl-GGDP (C21)] |  | product formation in coupled enzyme assay [1]: new methyl-diterpene product
2 | CC(C)=CCC/C(C)=C/CC/C(C)=C/CC/C(C)=C(\C)COP(=O)(O)OP(=O)(O)O [unGGPP] |  | conversion of substrate to product, detected by gas chromatography / GC-MS [2]: novel product with a shifted retention time
3 | ArTPS3 (protein, Ajuga reptans) MSLSFTIKVTPFSGQRVHSSTESFPIQQFPTITTKSAMAVKCSSLSTATVSFQDFVGKIRDTINGKVDNSPAATTIHPADIPSNLCVVDTLQRLGVDRYFQSEIDSVLNDTYRFWQQKGEDIFTDVACRAMAFRLLRVKGYEVSSDELASYAEQEHVNLQPSDITTVIELYRASQTRLYEDEGNLEKLHTWTSNFLKQQLQSETISDEKLHKQVEYYLKNYHGILDRAGVRQSLDLYDINQYQNLKSTDRFPTLSNEDLLEFAKQDFNFCQAQHQKELQQLQRWYADCKLDTLTYGRDVVRVASFLTAAIFGEPEFSDARLAFAKHIILVTRIDDFFDHGGSIEESYKILDLVKEWEDKPAEEYPSKEVEILFTAVYNTVNDLAEMAYIEQGRSIKPLLIKLWVEILTSFKKELDSWTEDTELTLEEYLASSWVSIGCRICSLNSLQFLGITLSEEMLSSEECMELCRHVSSVDRLLNDVQTFEKERLENTINSVSLQLAEAQREGRTITEEEAMSKIKDLADYHRRQLMQMVYKDGTIFPRQCKDVFLRVCRIGYYLYASGDEFTTPQQMMGDMKSLVYEPLNTSSS | PgPP, (+)-CPP, (+)-8-LPP, ent-CPP | 
4 | SsSCS (protein, listed as Salvia sclarea) MSLAFNVGVTPFSGQRVGSRKEKFPVQGFPVTTPNRSRLIVNCSLTTIDFMAKMKENFKREDDKFPTTTTLRSEDIPSNLCIIDTLQRLGVDQFFQYEINTILDNTFRLWQEKHKVIYGNVTTHAMAFRLLRVKGYEVSSEELAPYGNQEAVSQQTNDLPMIIELYRAANERIYEEERSLEKILAWTTIFLNKQVQDNSIPDKKLHKLVEFYLRNYKGITIRLGARRNLELYDMTYYQALKSTNRFSNLCNEDFLVFAKQDFDIHEAQNQKGLQQLQRWYADCRLDTLNFGRDVVIIANYLASLIIGDHAFDYVRLAFAKTSVLVTIMDDFFDCHGSSQECDKIIELVKEWKENPDAEYGSEELEILFMALYNTVNELAERARVEQGRSVKEFLVKLWVEILSAFKIELDTWSNGTQQSFDEYISSSWLSNGSRLTGLLTMQFVGVKLSDEMLMSEECTDLARHVCMVGRLLNDVCSSEREREENIAGKSYSILLATEKDGRKVSEDEAIAEINEMVEYHWRKVLQIVYKKESILPRRCKDVFLEMAKGTFYAYGINDELTSPQQSKEDMKSFVF | ent-, syn-, (+)-CPP, (+)-8-LPP, ent-8-LPP, KPP, 9-LPP | 
5 | KgTPS2 (protein, listed as Kitasatospora griseola) MPDAIEFEHEGRRNPNSAEAESAYSSIIAALDLQESDYAVISGHSRIVGAAALVYPDADAETLLAASLWTACLIVNDDRWDYVQEDGGRLAPGEWFDGVTEVVDTWRTAGPRLPDPFFELVRTTMSRLDAALGAEAADEIGHEIKRAITAMKWEGVWNEYTKKTSLATYLSFRRGYCTMDVQVVLDKWINGGRSFAALRDDPVRRAIDDVVVRFGCLSNDYYSWGREKKAVDKSNAVRILMDHAGYDESTALAHVRDDCVQAITDLDCIEESIKRSGHLGSHAQELLDYLACHRPLIYAAATWPTETNRYR | ent-, syn-, (+)-CPP, (+)-8-LPP, ent-8-LPP, KPP, 9-LPP | 
